Data from paper PMC12691643.

Key:
Assay in all cases: affinity purification with mass spectrometry; HA-tagged TgWIP variants pulled down by the HA tag from lysates of DC2.4 cells infected 4 h at MOI 7; host partners by mass spectrometry; values are negative fold changes in peptide counts of the mutant immunoprecipitations relative to TgWIP^WT
[1] = target: TgWIP^Y150A/Y199A, HA-tagged (Toxoplasma gondii)
[2] = target: TgWIP^(PRR3 mut), HA-tagged (Toxoplasma gondii)
[3] = target: TgWIP^(WIRS mut), HA-tagged (Toxoplasma gondii)
[4] = target: TgWIP^(PRR2 mut), HA-tagged (Toxoplasma gondii)

| Binder | negative fold change in peptide counts relative to TgWIP^WT [1] [fold] | negative fold change in peptide counts relative to TgWIP^WT [2] [fold] | negative fold change in peptide counts relative to TgWIP^WT [3] [fold] | negative fold change in peptide counts relative to TgWIP^WT [4] [fold] |
| --- | --- | --- | --- | --- |
| Nckap1l (Hem1), endogenous in murine DC2.4 cells (natural protein) MSLTSAYQLKLAEKLTILNDRGQGVLIRMYNIKKTCSDSKSKPPFLLEKSMESCLKYINKKFPNIDVRNSTQHLGPVHREKAEIIRFLTNYYQSFVDVMEFRDHVYELLNTIDACQCHFDINLNFDFTRSYLDLIVTYTSVILLLSRIEDRRILIGMYNCAHEMLHGHSDPSFARLGQMVLEYDHPLKKLTEEFGPHTKAVSGALLSLHFLFVRRNQGAEQWRSAQLLSLISSPPAMINPANSDTMACEYLSVEVMERWIIIGFLLCHGCLNSNSQCQKLWKLCLEGSLYITLIREDVLQVHKVTEDLFSSLKGYSKRVADIKESKEHAITNSGQFHCQRRQFLRTAVKELETVLNDEPGLLGPKALFAFMALSFIRDEVTWLVRHTENVTKTKTPEDYADSSIAELLFLLEEIRALVRRHIKVIQQYHLQYLARFDVLVLSDIIQNLSVCPEEESVIMSSFVSILSSLNLKQVDNEEKFDFSGLRLDWFRLQAYTSVSKAPLHLHENPDLAKVMNLIIFHSQMLDSVEKMLVETSDLSTFCFHLRTFEKMFATTLEEPTMLRYTIAFPLICAHFVHCVHEMCPEEYPHLKNHGLHHCNSFLEDLAKQTSNCVLEICAEQRNLNEQLLPKHCATTISKAKNKKSMKQRQAPRKGEPERDKPGAESHRKNRSLVTNMDKLHLNLTELALAMNHVHSFSVFEHTIFPSEYLSSHLEARLNRAIVTLAGYNATTQEILRPSELLAGVKAYISFIQSLAQFLGADASRIVRNALLQQTQPLDSSGEQTVTTLYTNWYLESLLRQASSGAIVLSPAMQAFISLPRDGEQNFSAEEFSDISEMRALAEILGPYGMKFLSENLMWHVTSQIVELKKLVVENMDILVQIRSNFSKPELMASLLPQLTGAENVLKRMTIIGVILSFRAMAQEGLQEVFSAHCPFLMGPIECLKEFVTPDTDIKVTLSVFELACAAGVSCDIDPALVAAIANLKADNSSPEEEYKVACLLLIFLAVSLPLLATDPSSFFSIEKDGYNNNIHCLTKAIIQVSAALFTLYNKNIETHLKEFLVVASVSLLQLGQETDKLKTRNRESISLLMRLVVEESPFLTLDMLESCFPYVLLRNAYREVSRAFYLNRLPASSH | 1 | 4 | 2 | 3 |
| Abi3, endogenous in murine DC2.4 cells (natural protein) MAELQQLQQLQEFDIPTGREALRGNHSALLRVANYCEDNYLQATDKRKALEETMAFTTQALASVAYQVGNLAGHTLRMLDLQGAALRQVEAKMSTLGQMVNMHMEKVARREIGTLATVVRLPSNQKVIPPESLPSLTPYHRKPLNFACLDDIGHGVKDLSTQLSRTGTLSRKSIKAPATPVSATLGRPPRIPEPVQLPAVPDGKLSAASSASSLASAGSAEGASGIPQSKGQVAPATPPPPPVAPVTPPPPPLSAEVFLPPPPLEVSQPPLEAELPLPPPPALEGDELGLLPPPPPGFGPDEPSWVPASYLEKVVTLYPYTRQKDNELSFSEGTVICVTRRYSDGWCEGVSSEGTGFFPGNYVEPSC | 1 | 7 | 1 | 3 |
